Here are results for five molecules from patent publication US20150190494A1 (OXFORD UNIVERSITY INNOVATION, published 2015).

In test [1] the target is T1, fH67 (UniProt P08603 321-443).
T1 construct: domain: fH67; Flowed as analyte over immobilised fHbps in SPR; also called factor H
T1 sequence: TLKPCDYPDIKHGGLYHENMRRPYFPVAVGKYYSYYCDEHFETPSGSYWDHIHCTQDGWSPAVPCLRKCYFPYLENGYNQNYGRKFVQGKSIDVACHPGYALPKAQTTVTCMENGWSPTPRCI
Kind of test: SPR, fHbp immobilised on sensor chip, fH67 flowed over.
Method: Kd values for fH₆₇ binding to the stable V2 fHbps were calculated from the sensogram (fH₆₇ binding to WT V2 fHbp shown in Appendix 3a) and compared to fH₆₇ binding to WT V2 fHbp (Table 3).

Test [2] deals with T1, fH67. The test is described as follows: SPR, fHbp immobilised on sensor chip, fH67 flowed over; mean ± SD of two determinations. Background: Surface plasmon resonance follows binding to a sensor surface in real time, without labels.

Substitutions are numbered along the chain they refer to. Numbers in names are those of the source.

B1: WT V2 fHbp (other)
chain: CSSGGGGVAADIGAGLADALTAPLDHKDKSLQSLTLDQSVRKNEKLKLAAQGAEKTYGNGDSLNTGKLKNDKVSRFDFIRQIEVDGQLITLESGEFQIYKQDHSAVVALQIEKINNPDKIDSLINQRSFLVSGLGGEHTAFNQLPSGKAEYHGKAFSSDDPNGRLHYSIDFTKKQGYGRIEHLKTPEQNVELASAELKADEKSHAVILGDTRYGGEEKGTYHLALFGDRAQEIAGSATVKIREKVHEIGIAGKQ
notes: also called wild type V2 fHbp; V2WT
Take B1: the “Relative Kd” value with fH67 [1] came to 1 fold against WT V2 fHbp. The molecule also returned a dissociation constant Kd with fH67 [2] of 3.18 nM.

B2: M5 V2 fHbp (S35G/D107S/L114F/S137G/G138D) (other)
chain: B1 chain with S30G, D102S, L109F, S132G, G133D
For the molecule B2, in the test with fH67 [1], the “Relative Kd” value amounted to 3.84 fold against WT V2 fHbp. In addition, in the test with fH67 [2], the dissociation constant (Kd) amounted to 12.2 nM.

B3: M4B V2 fHbp (S35G/L114F/S137G/G138D) (other)
chain: B1 chain with S30G, L109F, S132G, G133D
Turning to B3, the “Relative Kd” value with fH67 [1] turned out to be 3.92 fold against WT V2 fHbp. The molecule further returned a Kd in the test with fH67 [2] of 12.5 nM.

B4: M4A V2 fHbp (S35G/D107S/S137G/G138D) (other)
chain: B1 chain with S30G, D102S, S132G, G133D
For B4, the “Relative Kd” value with fH67 [1] was 2.39 fold against WT V2 fHbp. For the same molecule, binding with fH67 [2] was characterised by a dissociation constant (Kd) of 7.6 nM.

B5: M6 V2 fHbp (S35G/D107S/V112T/L114F/S137G/G138D) (other)
chain: B1 chain with S30G, D102S, V107T, L109F, S132G, G133D
Turning to B5, the “Relative Kd” value with fH67 [1] was determined as 19.3 fold against WT V2 fHbp. For the same molecule, the Kd with fH67 [2] worked out at 61.3 nM.

The Kd is the equilibrium constant for the complex coming apart.
